Data on one substance can be found in patent US5876710A, “Compounds and compositions for delivering active agents” (Emisphere Technologies Inc., priority 1997, dated 1999).

Details of this series: species or system Rats. The conditions noted are these: rat, in vivo, po, 1 mg/kg.

Consider interferon, for which the “Mean peak serum interferon concentration” value came to 1951±1857.
